{
  "source": "patent US12404318B2",
  "about": "“Combination HBV therapy” (priority 2018, dated 2025)",
  "molecules": {"B1": {"name": "HBC34v7 (antibody, V domains shown)", "VH": "ELQLVESGGGWVQPGGSQRLSCAASGRIFRSFYMSWVRQAPGKGLEWVATINQDGSEKLYVDSVKGRFTISRDNAKNSLFLQMNNLRVEDTAVYYCAAWSGNSGGMDVWGQGTTVSVSS", "VL": "SYELTQPPSVSVSPGQTVSIPCSGDKLGNKNVCWFQHKPGQSPVLVIYEVKYRPSGIPERFSGSNSGNTATLTISGTQAMDEAAYFCQTFDSTTVVFGGGTRLTVL", "modifications": "Synthetic sequence HBC34 VH; Synthetic sequence HBC34v7 VL"}},
  "test_system": "HBV (rAAV8-1.3HBV strain ayw, D type)",
  "assay": "Combination therapy study in AAV-HBV mice (Example 1): serum HBsAg and HBV DNA",
  "type": "in vivo, C57BL/6 mice",
  "experimental": "The mice (C57BL/6 strain) were inoculated with the following amount of rAAV8-1.3HBV strain ayw, D type: 1.0×10^11 viral genomes per mouse in 200 μl volume via tail veins injection. Four weeks after viral inoculation, treatment with test compounds was initiated.\nEntecavir was administered orally once per day.",
  "data": [
    {"molecule": "B1", "values": [
      {"measurement": "HBsAg levels from mouse serum (average log HBsAg content)", "setting": "Treatment 2: HBC34v7 15 mg/kg, day 0 post-dose", "value": 4.64, "unit": "log IU/ml"},
      {"measurement": "HBsAg levels from mouse serum (average log HBsAg content)", "setting": "Treatment 2: HBC34v7 15 mg/kg, day 3 post-dose", "value": 4.58, "unit": "log IU/ml"},
      {"measurement": "HBsAg levels from mouse serum (average log HBsAg content)", "setting": "Treatment 2: HBC34v7 15 mg/kg, day 7 post-dose", "value": 4.46, "unit": "log IU/ml"},
      {"measurement": "HBsAg levels from mouse serum (average log HBsAg content)", "setting": "Treatment 2: HBC34v7 15 mg/kg, day 10 post-dose", "value": 4.42, "unit": "log IU/ml"},
      {"measurement": "HBsAg levels from mouse serum (average log HBsAg content)", "setting": "Treatment 2: HBC34v7 15 mg/kg, day 14 post-dose", "value": 4.34, "unit": "log IU/ml"},
      {"measurement": "HBsAg levels from mouse serum (average log HBsAg content)", "setting": "Treatment 2: HBC34v7 15 mg/kg, day 17 post-dose", "value": 3.87, "unit": "log IU/ml"},
      {"measurement": "HBsAg levels from mouse serum (average log HBsAg content)", "setting": "Treatment 2: HBC34v7 15 mg/kg, day 21 post-dose", "value": 4.09, "unit": "log IU/ml"},
      {"measurement": "HBsAg levels from mouse serum (average log HBsAg content)", "setting": "Treatment 2: HBC34v7 15 mg/kg, day 24 post-dose", "value": 3.65, "unit": "log IU/ml"},
      {"measurement": "HBsAg levels from mouse serum (average log HBsAg content)", "setting": "Treatment 2: HBC34v7 15 mg/kg, day 28 post-dose", "value": 4.15, "unit": "log IU/ml"},
      {"measurement": "HBsAg levels from mouse serum (average log HBsAg content)", "setting": "Treatment 2: HBC34v7 15 mg/kg, day 31 post-dose", "value": 4.29, "unit": "log IU/ml"},
      {"measurement": "HBsAg levels from mouse serum (average log HBsAg content)", "setting": "Treatment 2: HBC34v7 15 mg/kg, day 35 post-dose", "value": 4.25, "unit": "log IU/ml"},
      {"measurement": "HBsAg levels from mouse serum (average log HBsAg content)", "setting": "Treatment 2: HBC34v7 15 mg/kg, day 38 post-dose", "value": 4.26, "unit": "log IU/ml"},
      {"measurement": "HBsAg levels from mouse serum (average log HBsAg content)", "setting": "Treatment 2: HBC34v7 15 mg/kg, day 42 post-dose", "value": 4.28, "unit": "log IU/ml"},
      {"measurement": "HBsAg levels from mouse serum (average log HBsAg content)", "setting": "Treatment 3: HBC34v7 5 mg/kg, day 0 post-dose", "value": 4.49, "unit": "log IU/ml"},
      {"measurement": "HBsAg levels from mouse serum (average log HBsAg content)", "setting": "Treatment 3: HBC34v7 5 mg/kg, day 3 post-dose", "value": 4.37, "unit": "log IU/ml"},
      {"measurement": "HBsAg levels from mouse serum (average log HBsAg content)", "setting": "Treatment 3: HBC34v7 5 mg/kg, day 7 post-dose", "value": 4.44, "unit": "log IU/ml"},
      {"measurement": "HBsAg levels from mouse serum (average log HBsAg content)", "setting": "Treatment 3: HBC34v7 5 mg/kg, day 10 post-dose", "value": 4.35, "unit": "log IU/ml"},
      {"measurement": "HBsAg levels from mouse serum (average log HBsAg content)", "setting": "Treatment 3: HBC34v7 5 mg/kg, day 14 post-dose", "value": 4.30, "unit": "log IU/ml"},
      {"measurement": "HBsAg levels from mouse serum (average log HBsAg content)", "setting": "Treatment 3: HBC34v7 5 mg/kg, day 17 post-dose", "value": 4.28, "unit": "log IU/ml"},
      {"measurement": "HBsAg levels from mouse serum (average log HBsAg content)", "setting": "Treatment 3: HBC34v7 5 mg/kg, day 21 post-dose", "value": 4.32, "unit": "log IU/ml"},
      {"measurement": "HBsAg levels from mouse serum (average log HBsAg content)", "setting": "Treatment 3: HBC34v7 5 mg/kg, day 24 post-dose", "value": 4.26, "unit": "log IU/ml"},
      {"measurement": "HBsAg levels from mouse serum (average log HBsAg content)", "setting": "Treatment 3: HBC34v7 5 mg/kg, day 28 post-dose", "value": 4.23, "unit": "log IU/ml"},
      {"measurement": "HBsAg levels from mouse serum (average log HBsAg content)", "setting": "Treatment 3: HBC34v7 5 mg/kg, day 31 post-dose", "value": 3.99, "unit": "log IU/ml"},
      {"measurement": "HBsAg levels from mouse serum (average log HBsAg content)", "setting": "Treatment 3: HBC34v7 5 mg/kg, day 35 post-dose", "value": 3.99, "unit": "log IU/ml"},
      {"measurement": "HBsAg levels from mouse serum (average log HBsAg content)", "setting": "Treatment 3: HBC34v7 5 mg/kg, day 38 post-dose", "value": 4.08, "unit": "log IU/ml"},
      {"measurement": "HBsAg levels from mouse serum (average log HBsAg content)", "setting": "Treatment 3: HBC34v7 5 mg/kg, day 42 post-dose", "value": 4.05, "unit": "log IU/ml"},
      {"measurement": "HBsAg levels from mouse serum (average log HBsAg content)", "setting": "Treatment 4: HBC34v7 1 mg/kg, day 0 post-dose", "value": 4.50, "unit": "log IU/ml"},
      {"measurement": "HBsAg levels from mouse serum (average log HBsAg content)", "setting": "Treatment 4: HBC34v7 1 mg/kg, day 3 post-dose", "value": 4.46, "unit": "log IU/ml"},
      {"measurement": "HBsAg levels from mouse serum (average log HBsAg content)", "setting": "Treatment 4: HBC34v7 1 mg/kg, day 7 post-dose", "value": 4.42, "unit": "log IU/ml"},
      {"measurement": "HBsAg levels from mouse serum (average log HBsAg content)", "setting": "Treatment 4: HBC34v7 1 mg/kg, day 10 post-dose", "value": 4.37, "unit": "log IU/ml"},
      {"measurement": "HBsAg levels from mouse serum (average log HBsAg content)", "setting": "Treatment 4: HBC34v7 1 mg/kg, day 14 post-dose", "value": 4.40, "unit": "log IU/ml"},
      {"measurement": "HBsAg levels from mouse serum (average log HBsAg content)", "setting": "Treatment 4: HBC34v7 1 mg/kg, day 17 post-dose", "value": 4.31, "unit": "log IU/ml"},
      {"measurement": "HBsAg levels from mouse serum (average log HBsAg content)", "setting": "Treatment 4: HBC34v7 1 mg/kg, day 21 post-dose", "value": 4.31, "unit": "log IU/ml"},
      {"measurement": "HBsAg levels from mouse serum (average log HBsAg content)", "setting": "Treatment 4: HBC34v7 1 mg/kg, day 24 post-dose", "value": 4.38, "unit": "log IU/ml"},
      {"measurement": "HBsAg levels from mouse serum (average log HBsAg content)", "setting": "Treatment 4: HBC34v7 1 mg/kg, day 28 post-dose", "value": 4.29, "unit": "log IU/ml"},
      {"measurement": "HBsAg levels from mouse serum (average log HBsAg content)", "setting": "Treatment 4: HBC34v7 1 mg/kg, day 31 post-dose", "value": 4.15, "unit": "log IU/ml"},
      {"measurement": "HBsAg levels from mouse serum (average log HBsAg content)", "setting": "Treatment 4: HBC34v7 1 mg/kg, day 35 post-dose", "value": 4.16, "unit": "log IU/ml"},
      {"measurement": "HBsAg levels from mouse serum (average log HBsAg content)", "setting": "Treatment 4: HBC34v7 1 mg/kg, day 38 post-dose", "value": 4.09, "unit": "log IU/ml"},
      {"measurement": "HBsAg levels from mouse serum (average log HBsAg content)", "setting": "Treatment 4: HBC34v7 1 mg/kg, day 42 post-dose", "value": 4.08, "unit": "log IU/ml"},
      {"measurement": "HBsAg levels from mouse serum (average log HBsAg content)", "setting": "Treatment 5: HBC34v7 0.1 mg/kg, day 0 post-dose", "value": 4.51, "unit": "log IU/ml"},
      {"measurement": "HBsAg levels from mouse serum (average log HBsAg content)", "setting": "Treatment 5: HBC34v7 0.1 mg/kg, day 3 post-dose", "value": 4.36, "unit": "log IU/ml"},
      {"measurement": "HBsAg levels from mouse serum (average log HBsAg content)", "setting": "Treatment 5: HBC34v7 0.1 mg/kg, day 7 post-dose", "value": 4.31, "unit": "log IU/ml"},
      {"measurement": "HBsAg levels from mouse serum (average log HBsAg content)", "setting": "Treatment 5: HBC34v7 0.1 mg/kg, day 10 post-dose", "value": 4.17, "unit": "log IU/ml"},
      {"measurement": "HBsAg levels from mouse serum (average log HBsAg content)", "setting": "Treatment 5: HBC34v7 0.1 mg/kg, day 14 post-dose", "value": 4.26, "unit": "log IU/ml"},
      {"measurement": "HBsAg levels from mouse serum (average log HBsAg content)", "setting": "Treatment 5: HBC34v7 0.1 mg/kg, day 17 post-dose", "value": 4.17, "unit": "log IU/ml"},
      {"measurement": "HBsAg levels from mouse serum (average log HBsAg content)", "setting": "Treatment 5: HBC34v7 0.1 mg/kg, day 21 post-dose", "value": 4.23, "unit": "log IU/ml"},
      {"measurement": "HBsAg levels from mouse serum (average log HBsAg content)", "setting": "Treatment 5: HBC34v7 0.1 mg/kg, day 24 post-dose", "value": 4.25, "unit": "log IU/ml"},
      {"measurement": "HBsAg levels from mouse serum (average log HBsAg content)", "setting": "Treatment 5: HBC34v7 0.1 mg/kg, day 28 post-dose", "value": 4.20, "unit": "log IU/ml"},
      {"measurement": "HBsAg levels from mouse serum (average log HBsAg content)", "setting": "Treatment 5: HBC34v7 0.1 mg/kg, day 31 post-dose", "value": 4.26, "unit": "log IU/ml"},
      {"measurement": "HBsAg levels from mouse serum (average log HBsAg content)", "setting": "Treatment 5: HBC34v7 0.1 mg/kg, day 35 post-dose", "value": 4.38, "unit": "log IU/ml"},
      {"measurement": "HBsAg levels from mouse serum (average log HBsAg content)", "setting": "Treatment 5: HBC34v7 0.1 mg/kg, day 38 post-dose", "value": 4.38, "unit": "log IU/ml"},
      {"measurement": "HBsAg levels from mouse serum (average log HBsAg content)", "setting": "Treatment 5: HBC34v7 0.1 mg/kg, day 42 post-dose", "value": 4.30, "unit": "log IU/ml"}
    ]}
  ]
}
